Test results as given in paper PMC5870055, “Structural and Mechanistic Analysis of the Choline Sulfatase from Sinorhizobium melliloti: A Class I Sulfatase Specific for an Alkyl Sulfate Ester” (Journal of Molecular Biology, 2018).

Target: the molecule itself
Test: SEC-MALS; 100 uL of 2 mg/mL protein on Superdex 200 10/300 HR in 100 mM Tris-HCl pH 8.0, 150 mM NaCl, 0.5 mL/min; multi-angle light scattering and differential refractive index detectors

Protein | stoichiometry N
SmCS Δ23 (truncated mutant lacking 23 C-terminal amino acids) (domain or fragment, Sinorhizobium meliloti 1021, UniProt O69787 1-489, looked up, Choline sulfatase (BetC) of S. meliloti 1021 with Glu490 replaced by a stop codon, so that the last 23 residues (490-512) are missing; Predominantly a dimer (78%); source: E. coli BL21(DE3) expressing MtbFGE, purified (Q-Sepharose, Strep-Tactin, Superdex 200)) MTTGKPNILIIMVDQLNGKLFPDGPADFLHAPNLKALAKRSARFHNNYTSSPLCAPARASFMAGQLPSRTRVYDNAAEYQSSIPTYAHHLRRAGYYTALSGKMHFVGPDQLHGFEERLTTDIYPADFGWTPDYRKPGERIDWWYHNLGSVTGAGVAEITNQMEYDDEVAFLANQKLYQLSRENDDESRRPWCLTVSFTHPHDPYVARRKFWDLYEDCEHLTPEVGAIPLDEQDPHSQRIMLSCDYQNFDVTEENVRRSRRAYFANISYLDEKVGELIDTLTRTRMLDDTLILFCSDHGDMLGERGLWFKMNFFEGSARVPLMIAGPGIAPGLHLTPTSNLDVTPTLADLAGISLEEVRPWTDGVSLVPMVNGVERTEPVLMEYAAEASYAPLVAIREGKWKYVYCALDPEQLFDLEADPLELTNLAENPRGPVDQATLTAFRDMRAAHWDMEAFDAAVRESQARRWVVYEALRNGAYYPWDHQPLQKAS | 2
SmCS Δ12 (truncated mutant lacking 12 C-terminal amino acids) (domain or fragment, Sinorhizobium meliloti 1021, UniProt O69787 1-500, looked up, Choline sulfatase (BetC) of S. meliloti 1021 with Thr501 replaced by a stop codon, so that the last 12 residues (501-512) are missing; Predominantly a tetramer (87%), with some dimer (11%) and monomer (2%); Made from the pASK-IBA5plusSmCS WT plasmid by QuikChange; source: E. coli BL21(DE3) expressing MtbFGE, purified (Q-Sepharose, Strep-Tactin, Superdex 200)) MTTGKPNILIIMVDQLNGKLFPDGPADFLHAPNLKALAKRSARFHNNYTSSPLCAPARASFMAGQLPSRTRVYDNAAEYQSSIPTYAHHLRRAGYYTALSGKMHFVGPDQLHGFEERLTTDIYPADFGWTPDYRKPGERIDWWYHNLGSVTGAGVAEITNQMEYDDEVAFLANQKLYQLSRENDDESRRPWCLTVSFTHPHDPYVARRKFWDLYEDCEHLTPEVGAIPLDEQDPHSQRIMLSCDYQNFDVTEENVRRSRRAYFANISYLDEKVGELIDTLTRTRMLDDTLILFCSDHGDMLGERGLWFKMNFFEGSARVPLMIAGPGIAPGLHLTPTSNLDVTPTLADLAGISLEEVRPWTDGVSLVPMVNGVERTEPVLMEYAAEASYAPLVAIREGKWKYVYCALDPEQLFDLEADPLELTNLAENPRGPVDQATLTAFRDMRAAHWDMEAFDAAVRESQARRWVVYEALRNGAYYPWDHQPLQKASERYMRNHMNLD | 4
Sinorhizobium meliloti choline sulfatase wild type (enzyme, Sinorhizobium meliloti 1021, UniProt O69787 1-512, looked up, Cys54 partially converted into formylglycine (fGly); modelled as cysteine and formyl glycine at 50% occupancy each, Choline sulfatase (BetC) of S. meliloti 1021; the whole gene (positions 1491-3029 of GenBank U39940) amplified from genomic DNA and cloned into pASK-IBA5plus; the C-terminal region is printed as residues 449-512; Protomer Mw ~61 kDa; also called SmCS; SmCS WT; source: E. coli BL21(DE3) expressing MtbFGE, purified (Q-Sepharose, Strep-Tactin, Superdex 200)) MTTGKPNILIIMVDQLNGKLFPDGPADFLHAPNLKALAKRSARFHNNYTSSPLCAPARASFMAGQLPSRTRVYDNAAEYQSSIPTYAHHLRRAGYYTALSGKMHFVGPDQLHGFEERLTTDIYPADFGWTPDYRKPGERIDWWYHNLGSVTGAGVAEITNQMEYDDEVAFLANQKLYQLSRENDDESRRPWCLTVSFTHPHDPYVARRKFWDLYEDCEHLTPEVGAIPLDEQDPHSQRIMLSCDYQNFDVTEENVRRSRRAYFANISYLDEKVGELIDTLTRTRMLDDTLILFCSDHGDMLGERGLWFKMNFFEGSARVPLMIAGPGIAPGLHLTPTSNLDVTPTLADLAGISLEEVRPWTDGVSLVPMVNGVERTEPVLMEYAAEASYAPLVAIREGKWKYVYCALDPEQLFDLEADPLELTNLAENPRGPVDQATLTAFRDMRAAHWDMEAFDAAVRESQARRWVVYEALRNGAYYPWDHQPLQKASERYMRNHMNLDTLEESKRYPRGE | 4
